Source: the DeepSol protein solubility set

Assay: soluble on expression in E. coli; label from the status in PepcDB or PDB records

Sequence | soluble on expression in E. coli
MSLSRTIEDRAAEFAIQPSYHALGGEFVRAPVETLREMLGAFGISLDGPPPDRAPPEMRAPDGYRCFLPEGEMRRWGIAAQLYQLRSERNWGIGDFADLCDLARIGGAAGADFIGLNPLHALFLANPAHTSPFSPSNRRFLNPLYIAVDRVPGYRPEFAPEGLGQLRAPDLVDYPAVAAAKLGALRRLWREGPDDAMGFMRFCAEGGELLRRHALFEAISGQMVADGYGAGWLGWPVEFHDAEGQAVIDFADARGDEVGFHLWLQWIADRQLEEARDACRAAGMKIGLYLDFAVGEVPDGSSTWSDPSLAVPGLRIGASPDWFNAQGQDWGLAPLSPVKLADLRAAPFGALMQDATRRAGALRIDHAMGVWQLFLIPDGMGAPQGTYVRYPIEDMLRALAEASCRNRTIVIGEDLGNVPDGFRELMARMNILSYRILLFERHDHGYIAPEHYPREALVCLSTHDLPTFRGWWRGDDVAIRRDFRLISDEAARQQGDFRWTERRQLLEDLARAGLMAWDEIDRIGPDDPPEALVVAVHRHLARAPSRLFAVRIEDMAGEVAPVNVPSTVDEHPNWRRRLGVPLEALGETALFRGIAGALEAEREGHHHHHH | soluble
MSLSTARLPENAERNRFQDVLPYDDARVELVPTKENNTGYINASHIKVSVSGIEWDYIATQGPLQNTCQDFWQMVWEQGIAIIAMVTAEEEGGREKSFRYWPRLGSRHNTVTYGRFKITTRFRTDSGCYATTGLKMKHLLTGQERTVWHLQYTDWPEHGCPEDLKGFLSYLEEIQSVRRHTNSTSDPQSPNPPLLVHCSAGVGRTGVVILSEIMIACLEHNEVLDIPRVLDMLRQQRMMLVQTLCQYTFVYRVLIQFLKSSRLIEGHHHHHH | not soluble
MSLSTIAIFGSYVLSRKDGAQDVLRDHWVLVEGKKIAAVTRDRPRADEVYDRPGRFVLPGLLNLHNHCFSEAVARSHSEDGTGRKNNQSIVYTVLLPLTKRGADILSAEERMAVARLGILQLLKGGATTVMEPFRNSIPEMFDAAEEMGIRFYGAPYLFSTSDAKAGPDGVVQYSGDDGTADMATWDALYQRWNNRGDGRISLAMSPHATDTCGPDLLKACAARARELGVPITTHMAQSRAEVETIGKRYGGRTPAQYLDWLGLLAPDLMAAHCMFSTDDDLKLMAARGMTVLNCPRVFARAGVTAAFSRFAEHGVRTVVGTDGYNMDLLGELNAASLISKITSQRADVANSPELIEANTAVAADVIKRPDLGRIEPGATADLTVVDLTHPHLQPLFDPRRALIALANRANIDQVMVDGRVLVDGGRYLGADEAAITAAGSAAIGKIWDLPEAQAAFNGEGHHHHHH | soluble
MSLSTQSEAALEAGLIATLRQMDYEYVQIVEEDNLYANFKRQLEIHNRKRLEEHGRTEFTAEEFEKILIYLEGGTRFEKAKKLRDLYPLDTADGQRIWVEFLNRQQWCQNEFQVSNQITVEGRKKCRYDVTILINGLPLVQIELKRRGVELKQAYNQIQRYHKTSFHGLFDYIQLFVISNGVNTRYFANNPNSGYKFTFNWTDAANHPFNELDKFAVFFLEKCTLGKIIGKYIVLHEGDKCLMVLRPYQFYAVEKILDRVQNSNDNGYIWHTTGAGKTLTSFKAAQLVSELDDVDKVMFVVDRHDLDTQTQSEYEAFEPGAVDSTDNTDELVKRLQSNSKIIITTIQKLNAAVSKTWYSSKIDAIRHSRIVMIFDECHRSHFGDSHKKIMKFFGNAQIFGFTGTPIFTENAVDGHTTKEIFGNCLHKYLIKDAIADENVLGFLVEYYHGNEIVDNDNQARMEEIAKFILNNFNKSTFDGEFDALFAVQSVPMLIRYYKIFRSLNPKIRIGAVFTYAANNSQDDEQTGMGTGQYAKESVGEADELQAIMDDYNENFGTSFTTENFRAYYDDINLRMKKKKADMKPLDLCLVVGMFLTGFDSKKLNTLYVDKNMEYHGLLQAFSRTNRVLNEKKRFGKIVCFRDLKNNVDTSIKLFSNSDNPEDIVRPPFEKVKQEYKSLSTDFLQKYPTPSSIDFLQSENDKKNFVLAFRDIIRKHAEIQIYEDYSEDAEDLGMTEQQFNDYKSKYLDITVGFIDPPAAPSTVAEDPVPYGNNQGLEDIDFCLELLHSDIINVAYILALINDLDPYSDDYSEKRQNIIDTMIKDAGMRGKAKLIDGFIKKNVDEDKENFMNGRNKADGTNELEERLNQYIVSERNKAVNDLADEEQISAEVLNHYMKEYDYLQKEQPEIIQKALKEKHLGLIKTRRALTRIMERLRSIIKTFNEGHHHHHH | soluble
MSLSVTDVAGRTVSFDAQPKRILLAEGRALMATSVLNKENPAKDVVAIGADLHKAAPSFESALRQARPQVSKLPMIGSIAKGDVTVENMLSFKPDAVVMTLDQKEAAEKAGFLQKMDQAKLPYVFIDFRRKPLENTTKSMATLGKIFGGKAISRAKEFNKFYQSKVDDVSRRVSRESDKPRTFLWRAAGLKDCCSTYANLNLGDVITAAGGHNLGADLLRTSAGDVTPEKIVATQPEHIIATGGSWAKDPKKPESVPHVELGYNVTDDDAQRTLAGLLKTPGFSLLKAPKDGKLHAVYHQFYDSPFNVFALEQFAAWQHPKQFKGVDLTKDFAKFHEDYLPFGYRGVFFVTLKEGHHHHHH | soluble
MSLSYTEEWVTARARGAYEHGRASFDVRPERTALLVIDMQDEFVRPGWSPYWVPAATRMAPRLRRLIEGCRSAAVPVIWSIFDDTHLGLDRPKALGYLPHADTDWRRPGPAEVWDQMGRRPDEALIRKPSYGAFYDTPLDTMLRNLGRDTVIVTGTLTNYCCGTTARQAYERGYKVVFGADVTATDDESRQEPELAVLRKGFALVLTAEEITNQLAEGHHHHHH | soluble
MSLTAPHIVDPAGLLGEALSEASPDLMRSLLQTVINALLSADADAVVGAEWGQPTPGRRSQRNGYRHRGLDTRVGTIDVAVPKLRKGTYFPDWLLERRKRAESALITVVADCYLAGVSTRRMDKLVKTLGIDSLSKSQVSRMATDLDEHVEQFRHRPLDSAGPFTFVAADALTMKVREGGRVVNGVVLLATGVNGDGHREVLGMRVVTSETGPAWNEFFADLVARGLAGVRLVTSDAHAGLREAIAANLPGAAWQRCRTHYAANLMSICPKSMWPAVKAMLHSVYDQPDAPAVAAQFDRLIDYVTDKLPAVAEHLSAAREDILAFTAFPKDVWTQIWSNNPAVIWSPAVGVVDVRHEASGSLVLLSGRGYLQPSRKQSLRRKSACYTGGFANLVGEGHHHHHH | soluble
MSLTAYQASSQARVDAAMHTLFTAPSPELARLYEAMRYSVMNGGKRVRPLLAYAACEALGGKPEQANGAACAVELIHAYSLVHDDLPAMDDDDLRRGQPTTHKAFDEACAILAGDGLQSLAFSALLDPALSDASAEIRLRMVTTLAQAAGPAGMVGGQAIDLGSVGLKLDQQALEYMHRHKTGALIEASVILGALASGRAEKGELKALQTYAQAIGLAFQVQDDILDVESDTATLGKRQGADIARDKPTYPALLGLAAAKEYALELRDQALHALRPFDAAAEPLRELARYIVERRSEGHHHHHH | soluble
MSLTDPAPEPEPPVEGQWTALTASPDTWDETKRADISYQLLLYSFADSDGDGYGDLNGVTQKLDYLNQLGVKALWLSPIHPCMSYHGYDVTDYTKVNPQLGTESDFDRLVTEAHNRGIKIYLDYVMNHTGTAHPWFTEASSSSESPYRNYYSFSEDPKTDIAAGKIAMITQEGAAGYNAAEWFQVSDETAAVKGLLKFTLDWSNAPSPILVVSTGTKADEDNPDTGTDNAKYLYYGEDICKKFYDKGNNIYELTVDFESTWGLLIRTSNASFWPSGTKYGASSSSEKLALNKDFKLTNAGNPANIMFDSQQITYFHSHFCTDWFADLNYGPVDQAGESPAYQAIADAAKGWIARGVDGLRLDAVKHIYHSETSEENPRFLKMFYEDMNAYYKQKGHTDDFYMIGEVLSEYDKVAPYYKGLPALFEFSFWYRLEWGINNSTGCYFAKDILSYQQKYANYRSDYIEATKLSNHDEDRTSSKLGKSADKCKLAAAVLLTSAGHPYIYYGEELGLYGTKDNGDEYVRSPMLWGDSYTTNYTDKTDATVSKNVKTVADQQADTHSLLNIYFSLTRLRNTYPALAEGNMTKHSVYNESQEKDYKPIAAWYMTKDNEKLLVIHNFGGTAMQLPLTDKIEKVLFVNGETQQNTDSDSYTLKLGGYASVVFKLGNEGHHHHHH | soluble
MSLTEKTKEVRLDFFEALGMVTALMMDCDYKHWFVADISRNIIPALQAGQCKVYFDEEGRPNAFVTWALVDNDDHEALLREGCNPPPGKWASGNHLWFIDIVAPVGNILPRIKRDLHQNYFADHNKAYAIRSKADGAIRRVQVWKNPLVTRPTRSFRIGADIETHDDEGHHHHHH | soluble
MSLTELLNNLEYKKEQLKKLLLRIHEGESVEKLKEEFRTVLSNISPLEIPLIEQELVKEGISARDIAKMCDLHVELFREAVKGTGEVEEKDLPEGHPLKTLYQENKEIMKDAEMLNLYAKTLATTKDERMREEILGVLEEIVSSLRMVGFTHYNREEMLIFPYIERRGLTVIATVLWTKHDEIRAMIKQLAELLRKREEMPWEEFVEKFKAKAGEVAFALSDMVFRENNIFYPTLKALLSEGEWKAIKMQEDEIGYYKVKPPEWDPGEDVKPLHPWEINPELNVEQLLTLPKEVQQALRGQPLEFDKTQLKREEDIDLGTGYLNIEELKAIFEALPVDVTFIDKDDRVRFFSPGERIFTRTPSVLGRPVQLCHPPKSVYVVNKILKAFKEGRKKEATFWLRLREKYVYIKYVPLFNEKGEYIGTLEMTMDIAPYKKIEGEKRLLDWRDEGHHHHHH | soluble
MSLTISDVPTQTLPAEGEIGLIDVGSLQLESGAVIDDVCIAVQRWGKLSPARDNVVVVLHALTGDSHITGPAGPGHPTPGWWDGVAGPGAPIDTTRWCAVATNVLGGCRGSTGPSSLARDGKPWGSRFPLISIRDQVQADVAALAALGITEVAAVVGGSMGGARALEWVVGYPDRVRAGLLLAVGARATADQIGTQTTQIAAIKADPDWQSGDYHETGRAPDAGLRLARRFAHLTYRGEIELDTRFANHNQGNEDPTAGGRYAVQSYLEHQGDKLLSRFDAGSYVILTEALNSHDVGRGRGGVSAALRACPVPVVVGGITSDRLYPLRLQQELADLLPGCAGLRVVESVYGHDGFLVETEAVGELIRQTLGLADREGACREGHHHHHH | not soluble
MSLTKALTFTILHNDMPTYPMKRDWLFWKEVTERTGVTLKPTSVPASDYDKKRSLLIGAGDAPLLIPKTYPGQETAFVSSGAILPVSEYVRLMPNFRAKVEKWGLEGDLDSIRQADGNYYVLPGLHEKVKSGYSLSFRTDVLKKHGLDLPTTWDQVYDVLKALKAAYPDVYPFSDRWGQPTPGGALLNYLGPAFGTKAGWSYANTAWDTKARKYVFTGATDEYRQMLEYLRKLVAEKLMDPESFTQSDDDAVRKLLSGKSFVISANPQELVQNYRYNLGKQVKGATIEMIPVPIGPTGEVIVGSRLENGLMVAGRAAEGDSFVAMMQFVDWLWYSDGGQEFAKYGVEGVTYTSSGAGRYKVADGISYMGSDPSAPKDLQKDYGFTNGEFAYGGSWALVSSSFSPDEKAFQDAMAGRKLLPVDPAHPLKADEQEQATLWDTPLKDHVTQNTLKFALGKRPMSEWDAYLAELKAKNMQRYIDLHNTAYERFKKEHEGHHHHHH | not soluble
MSLTKSVAIIGAGITGLSSAYFLKQQDPNIDVTIFEASNRPGGKIQSYRKDGYMIELGPESYLGRKTIMTELAKDIGLEQDIVTNTTGQSYIFAKNKLYPIPGGSIMGIPTDIKPFVTTKLISPLGKLRAGLDLIKKPIQMQDGDISVGAFFRARLGNEVLENLIEPLMGGIYGTDIDKLSLMSTFPNFKEKEEAFGSLIKGMKDEKNKRLKQRQLYPGAPKGQFKQFKHGLSSFIEALEQDVKNKGVTIRYNTSVDDIITSQKQYKIVYSNQQEDVFDGVLVTTPHQVFLNWFGQDPAFDYFKTMDSTTVATVVLAFDEKDIENTYDGTGFVIARTSDTDITACTWTSKKWPFTTPEGKVLIRAYVGKPGDTVVDDHTDNELVSIVRRDLSQMMTFKGDPEFTIVNRLPKSMPQYHVGHIQQIRQIQAHIKQTYPRLRVTGASFEAVGLPDCITQGKVAAEEVIAELEGHHHHHH | soluble
